# Test results from patent publication CN117545770A (HOFFMANN LA ROCHE, dated 2024).
# B1: HLA-G-0090 (antibody, IgG1, V domains shown)
# VH: QVQLQQSGPGLLKPSQTLSLTCAISGDSVSSNRAAWNWIRQSPSRGLEWLGRTYYRSKWYNDYAVSVQGRITLIPDTSKNQFSLRLNSVTPEDTAVYYCASVRAVAPFDYWGQGVLVTVSS
# VL: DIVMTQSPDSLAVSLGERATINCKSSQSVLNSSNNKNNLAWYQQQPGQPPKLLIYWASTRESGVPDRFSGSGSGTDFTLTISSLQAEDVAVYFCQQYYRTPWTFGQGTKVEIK
# modifications: N-glycosylation at the NSS motif of CDR-L1 (LC positions 31-33; Fab glycosylation found by mass spectrometry); N-glycosylation in CDR-L1 (NSS motif, LC 31-33) is on the light chain, not on this chain
# notes: also called 亲代抗体HLA-G-0090
# B2: HLA-G-0090-VL-S32P (antibody, V domains shown)
# VH: B1 VH
# VL: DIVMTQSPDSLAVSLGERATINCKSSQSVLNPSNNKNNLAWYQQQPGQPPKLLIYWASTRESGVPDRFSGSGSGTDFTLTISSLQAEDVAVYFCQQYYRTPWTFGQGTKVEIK
# notes: also called HLA-G-0090-S32P
# B3: HLA-G-0090-VL-S33A (antibody, V domains shown)
# VH: B1 VH
# VL: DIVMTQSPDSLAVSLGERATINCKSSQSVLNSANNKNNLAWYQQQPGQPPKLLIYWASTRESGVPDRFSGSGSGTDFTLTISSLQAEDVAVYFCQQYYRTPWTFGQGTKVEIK
# notes: also called HLA-G-0090-S33A
# B4: HLA-G-0090-VL-S33D (antibody, IgG1, V domains shown)
# VH: B1 VH
# VL: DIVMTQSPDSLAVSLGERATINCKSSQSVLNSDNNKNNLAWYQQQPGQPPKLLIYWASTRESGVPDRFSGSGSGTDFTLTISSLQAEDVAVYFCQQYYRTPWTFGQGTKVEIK
# notes: IgG1 format, HEK293F; also called HLA-G-0090--S33D
# B5: HLA-G-0090-VL-S33P (antibody, IgG1, V domains shown)
# VH: B1 VH
# VL: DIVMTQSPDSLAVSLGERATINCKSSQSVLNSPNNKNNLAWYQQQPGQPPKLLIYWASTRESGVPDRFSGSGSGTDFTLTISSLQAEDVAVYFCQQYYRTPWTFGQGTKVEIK
# notes: IgG1 format, HEK293F; also called HLA-G-0090-S33P
# Legend:
# [1] = biological target: T1, 重组单链HLA-G单体/人HLA-Gβ2M MHC I类复合物 (SEQ ID NO:39) (human); assay: SPR Biacore T200, 25 °C, multi-cycle kinetics; antibody captured by anti-hFc on CM3 chip, HLA-G complex as analyte; 1:1 Langmuir
# T1 construct: also called wt-HLA-G复合物; wt-HLA-G抗原
# [2] = biological target: T1, 重组单链HLA-G单体/人HLA-Gβ2M MHC I类复合物 (SEQ ID …); assay: SPR multi-cycle kinetics
Binder,t1/2 [1] [min],fold decrease of binding affinity against HLA-G-0090 [2] [fold]
B1,6.5,–
B2,7.34,–
B3,7.76,–
B4,1.73,5
B5,3.13,2
